We go through 57 variants from the RNAGym collection of RNA variant scans (doi:10.7554/elife.80360).

The chains are these.
B1: Hammerhead Ribozyme (parent)
chain: ACCGGAUGUGCUUUCCGGUCUGAUGAGUCCGUGAGGACGAAACAG

In the data set the parent is B1. The experiment in a line: self-cleavage, relative activity (ratio to wild type); higher = more cleavage; co-transcriptional.
ACCGGAUGUGCUUUCCGGUCUUGUGAGUCCGUGAGGACGAAACAG [G22U A23G]: the self-cleavage worked out at 0.297.

Take ACCGUAUGUGCUUUCCGGUCUGAUGCGUCCGUGAGGACGAAACAG [G5U A26C]: the self-cleavage came to 0.357.

For the variant ACCGGACGUGCUUUCCGGUCUGAUGAGUCCGUUAGGACGAAACAG [U7C G33U], the self-cleavage was determined as 0.755. For the variant ACCGGAUGUGCUUUCCGGUCUGAUGAGUCCGUGAGGACGACUCAG [A41C A42U], the self-cleavage was found to be 0.235.

Consider AGCGGAUGUGCUUUACGGUCUGAUGAGUCCGUGAGGACGAAACAG [C2G C15A], for which the self-cleavage was 0.302.

Take ACCGGAUGUGCUUUCCGGUCUGAUGAGUCCGUGCGGACGAAACGG [A34C A44G]: the self-cleavage turned out to be 0.727. As for ACCGCAUGUGCUUUCGGGUCUGAUGAGUCCGUGAGGACGAAACAG [G5C C16G], the figure is 0.716; as for ACCGGAUGUUCUUUCCGGUCUGAUGAGUCCGUGAGGACGAAGCAG [G10U A42G], 0.344. The figure for ACCGGAUGUGCUUUCCGGUCUGAUGAGUCCGUGAAGACGAAACUG [G35A A44U] is 0.46; for ACCGGACGUGCUUUCCGGUCUGAUGAGUCCGUGAGGACGAAACCG [U7C A44C] it is 0.631. For ACCGGAUGUGCUUUCCGGUGUGGUGAGUCCGUGAGGACGAAACAG [C20G A23G], the self-cleavage is 0.386. The figure for ACCGGAUGAGCUUUCCGGUCUGUUGAGUCCGUGAGGACGAAACAG [U9A A23U] is 0.337. Consider ACUGGAUGUGCUUUCCGGUCUGAGGAGUCCGUGAGGACGAAACAG [C3U U24G], for which the self-cleavage is 0.945.

With ACCGGAUGUGCUUACCGGUCUGAUGAGUCCGUGGGGACGAAACAG [U14A A34G], the self-cleavage stood at 0.73. As for ACCGGAUGUGCGUUCCGGUCUGAUGAGUCCGUGAGGACGAACCAG [U12G A42C], the self-cleavage stood at 0.239. Regarding ACCGGAUGUGCUUUCCGGUCUGAGGAGUCAGUGAGGACGAAACAG [U24G C30A], the self-cleavage came out at 0.626. As for ACCGGAUGUGCUUUCCGGUCUGAUGAGUGCGUGAGGACGAAAUAG [C29G C43U], the figure is 0.328. As to ACCGGAUGUGCUUUUCCGUCUGAUGAGUCCGUGAGGACGAAACAG [C15U G17C], the self-cleavage worked out at 0.399. As for ACCGGAUGUUCUUUCCGGUCUGAUGCGUCCGUGAGGACGAAACAG [G10U A26C], the figure is 0.439; as for CCCGGAUGUGCUUUCCGGUCUGAUGAGUCCGUGAGGAUGAAACAG [A1C C38U], 0.495; as for ACCGGAUGUGCUUUCCGGGCUGAUGAGUCCGUGAGGACGGAACAG [U19G A40G], 0.384. As for ACCGGAUGUGCUUUCCUGUCUGAUGAGUCCGUGAGGACGAAACAG [G17U], the figure is 0.855; as for ACCGGAUGUGCUUUCCGGUCUGAUGAGUCCGUGAGGACGAACCGG [A42C A44G], 1.06. As for ACGGGAUGUGCUUUACGGUCUGAUGAGUCCGUGAGGACGAAACAG [C3G C15A], the figure is 0.298; as for ACCGGAUGUGCUUUCCGGUCUGACGAGUCCGUGAGGACGGAACAG [U24C A40G], 0.27. ACCGGAAGUGCUUUCCGGUCUGACGAGUCCGUGAGGACGAAACAG [U7A U24C]: the self-cleavage was determined as 0.976. The figure for ACCGGAUGAGCUUUCGGGUCUGAUGAGUCCGUGAGGACGAAACAG [U9A C16G] is 0.742; for ACAGGAUGUGCUUUCCGGUCUGAUGAGUCCGUGAGAACGAAACAG [C3A G36A] it is 0.287.

With ACCGGAUGUGCUUUCCGGUCUGAUGAGUCCGUCAGGAGGAAACAG [G33C C38G], the self-cleavage was determined as 0.567.

In the case of ACCGGAUGUGCUUUCCGGACUGAUGAGUCCGGGAGGACGAAACAG [U19A U32G], the self-cleavage worked out at 0.33. On to ACCGGAUGUGCUUUCCGGUCUUAUGAGUCCGUGAGGACGGAACAG [G22U A40G], for which the self-cleavage is 0.288. As for ACCGGAUGUGGUUUCCGGUCUGAUGCGUCCGUGAGGACGAAACAG [C11G A26C], the self-cleavage came out at 0.725.

ACCGGAUGUGCUUUCCGGUCUCAUGAGUCCGUGAGCACGAAACAG [G22C G36C]: the self-cleavage worked out at 0.317. As for ACCCGAUGUGCUUUCCGGUCUGAUGAGACCGUGAGGACGAAACAG [G4C U28A], the figure is 0.297. As for ACCGGAAGUGCUUUCCGGUCUCAUGAGUCCGUGAGGACGAAACAG [U7A G22C], the figure is 0.309; as for ACCGGAUGUGCUUUCCGGUCUGUUGAGGCCGUGAGGACGAAACAG [A23U U28G], 0.36. The figure for ACCGGAUGUGCUUUCCGGUAUGAUGAGUCCGUGAGGACGAACCAG [C20A A42C] is 0.335; for ACCGGAUGUGCUUUCCGGUCUGAUGAGUCCGUAAGGACGAAACAC [G33A G45C] it is 0.873; for ACCGGAUGUGCUUUCCGGUCUGAUAAGUCCGUCAGGACGAAACAG [G25A G33C] it is 0.438.

For the variant ACCGGAUGUGCUUUCCGGUCUGAUGAGUCCGUGAGAACUAAACAG [G36A G39U], the self-cleavage turned out to be 0.322. For the variant ACCGGAUGUGCUUUCCGGUCCGAUGAGUCCGUGAGGACGAAACCG [U21C A44C], the self-cleavage came to 0.454. As for ACCGGAUGUGCUUUCCGGUCUGAUGAGUCCGUGACGACGAAAUAG [G35C C43U], the figure is 0.387; as for AACGGAUGUGCUUUCCGGUGUGAUGAGUCCGUGAGGACGAAACAG [C2A C20G], 0.288; as for ACCGGAUGUGCUUUCCGGUCUGAUCAGUCCGUGAAGACGAAACAG [G25C G35A], 0.344. With ACCAGAUAUGCUUUCCGGUCUGAUGAGUCCGUGAGGACGAAACAG [G4A G8A], the self-cleavage stood at 0.555. As for ACCGGAUGUGCUUUCCGGUCUGAUGAGUCCGUGCGGCCGAAACAG [A34C A37C], the self-cleavage was 0.426. As for ACCGGAUAUGCUUUCCGGUCUGAUGAGUCCGUGAGGACGAACCAG [G8A A42C], the figure is 0.373; as for ACGGGAUGUGCUUUCCGGUCUGAUGAGUCCGUGAGGAGGAAACAG [C3G C38G], 0.279; as for ACCGGAUGUGCUUUCUGGUCUGAUGAGUCCGAGAGGACGAAACAG [C16U U32A], 1.02. The figure for ACCGGAUGUGCUUUCUGGUCUGAUGAGUCCGUGAGGACGAAACGG [C16U A44G] is 1.34; for ACCGGAUGUGCUUUCCGGUCUAAUGAGUCUGUGAGGACGAAACAG [G22A C30U] it is 0.417; for ACCGGAUGUGCUUUCCGCUCUGAGGAGUCCGUGAGGACGAAACAG [G18C U24G] it is 0.365. The figure for ACCGGAUGUGCUUCCCGGUCUGAUGAGUCCGUGACGACGAAACAG [U14C G35C] is 0.499; for AUCGGAUGUGCUUUCCGGUCUGAUGAGUCCGUGAGGACGAAUCAG [C2U A42U] it is 0.301. Take ACCGGAUGUGCUUUCCGGUCUGAUGAGUCCGUGAGGACGAUAUAG [A41U C43U]: the self-cleavage was found to be 0.362.

For ACCGGAUGUGCUUUCCGGUCUGACGAGUCAGUGAGGACGAAACAG [U24C C30A], the self-cleavage came out at 0.904. As for ACCGGAUGUGCUUUCCGGUCUGAUCAAUCCGUGAGGACGAAACAG [G25C G27A], the figure is 0.285.
